Measured values taken from patent US7309594.

Tested on: Protein Kinase Bα/AKT1 catalytic domain (SEQ ID NO:3, tag removed) before PDK1 treatment
Sequence (chain, as listed by the source): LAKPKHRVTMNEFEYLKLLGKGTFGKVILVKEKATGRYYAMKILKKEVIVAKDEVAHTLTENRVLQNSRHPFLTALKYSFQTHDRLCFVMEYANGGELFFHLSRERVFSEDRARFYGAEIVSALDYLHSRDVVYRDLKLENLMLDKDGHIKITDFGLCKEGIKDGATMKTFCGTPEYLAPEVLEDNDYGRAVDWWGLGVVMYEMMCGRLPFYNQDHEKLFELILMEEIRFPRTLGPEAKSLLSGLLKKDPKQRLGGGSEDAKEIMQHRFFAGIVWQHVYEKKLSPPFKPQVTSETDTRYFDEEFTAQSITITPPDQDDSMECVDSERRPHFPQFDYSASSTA

Substance: PDK1 kinase
- phosphorylation of AKT1 (mass spectrometry): Following 120 minute incubation with PDK1, AKT1 was converted into a mixture of mono and double phosphorylated proteins
